Data reported in IntAct's records for PubMed 27524201.

B1: Kremen protein 1 (Homo sapiens), Q96MU8 (parent)
chain: MAPPAARLALLSAAALTLAARPAPSPGLGPECFTANGADYRGTQNWTALQGGKPCLFWNETFQHPYNTLKYPNGEGGLGEHNYCRNPDGDVSPWCYVAEHEDGVYWKYCEIPACQMPGNLGCYKDHGNPPPLTGTSKTSNKLTIQTCISFCRSQRFKFAGMESGYACFCGNNPDYWKYGEAASTECNSVCFGDHTQPCGGDGRIILFDTLVGACGGNYSAMSSVVYSPDFPDTYATGRVCYWTIRVPGASHIHFSFPLFDIRDSADMVELLDGYTHRVLARFHGRSRPPLSFNVSLDFVILYFFSDRINQAQGFAVLYQAVKEELPQERPAVNQTVAEVITEQANLSVSAARSSKVLYVITTSPSHPPQTVPGSNSWAPPMGAGSHRVEGWTVYGLATLLILTVTAIVAKILLHVTFKSHRVPASGDLRDCHQPGTSGEIWSIFYKPSTSISIFKKKLKGQSQQDDRNPLVSD
partner: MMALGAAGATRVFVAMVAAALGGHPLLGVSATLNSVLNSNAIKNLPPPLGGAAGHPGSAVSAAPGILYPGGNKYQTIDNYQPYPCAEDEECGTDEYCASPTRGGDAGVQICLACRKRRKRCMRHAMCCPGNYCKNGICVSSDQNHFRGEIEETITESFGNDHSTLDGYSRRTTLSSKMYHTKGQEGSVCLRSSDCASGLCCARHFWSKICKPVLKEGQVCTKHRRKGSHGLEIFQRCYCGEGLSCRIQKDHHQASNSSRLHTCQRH
B2: Kremen protein 1 (Homo sapiens), Q96MU8 (parent)
chain: B1 chain

Variants of: B1
Conditions: with dkk1_human DKK1, O94907

Variant | effect of a mutation on the interaction
V189N;F191S | disrupting interaction strength
D90N | disrupting interaction strength
A311S | disrupting interaction strength

Variants of: B2
Conditions: with lrp6_human LRP6, O75581
Chain of lrp6_human LRP6, O75581 (O75581 whole entry): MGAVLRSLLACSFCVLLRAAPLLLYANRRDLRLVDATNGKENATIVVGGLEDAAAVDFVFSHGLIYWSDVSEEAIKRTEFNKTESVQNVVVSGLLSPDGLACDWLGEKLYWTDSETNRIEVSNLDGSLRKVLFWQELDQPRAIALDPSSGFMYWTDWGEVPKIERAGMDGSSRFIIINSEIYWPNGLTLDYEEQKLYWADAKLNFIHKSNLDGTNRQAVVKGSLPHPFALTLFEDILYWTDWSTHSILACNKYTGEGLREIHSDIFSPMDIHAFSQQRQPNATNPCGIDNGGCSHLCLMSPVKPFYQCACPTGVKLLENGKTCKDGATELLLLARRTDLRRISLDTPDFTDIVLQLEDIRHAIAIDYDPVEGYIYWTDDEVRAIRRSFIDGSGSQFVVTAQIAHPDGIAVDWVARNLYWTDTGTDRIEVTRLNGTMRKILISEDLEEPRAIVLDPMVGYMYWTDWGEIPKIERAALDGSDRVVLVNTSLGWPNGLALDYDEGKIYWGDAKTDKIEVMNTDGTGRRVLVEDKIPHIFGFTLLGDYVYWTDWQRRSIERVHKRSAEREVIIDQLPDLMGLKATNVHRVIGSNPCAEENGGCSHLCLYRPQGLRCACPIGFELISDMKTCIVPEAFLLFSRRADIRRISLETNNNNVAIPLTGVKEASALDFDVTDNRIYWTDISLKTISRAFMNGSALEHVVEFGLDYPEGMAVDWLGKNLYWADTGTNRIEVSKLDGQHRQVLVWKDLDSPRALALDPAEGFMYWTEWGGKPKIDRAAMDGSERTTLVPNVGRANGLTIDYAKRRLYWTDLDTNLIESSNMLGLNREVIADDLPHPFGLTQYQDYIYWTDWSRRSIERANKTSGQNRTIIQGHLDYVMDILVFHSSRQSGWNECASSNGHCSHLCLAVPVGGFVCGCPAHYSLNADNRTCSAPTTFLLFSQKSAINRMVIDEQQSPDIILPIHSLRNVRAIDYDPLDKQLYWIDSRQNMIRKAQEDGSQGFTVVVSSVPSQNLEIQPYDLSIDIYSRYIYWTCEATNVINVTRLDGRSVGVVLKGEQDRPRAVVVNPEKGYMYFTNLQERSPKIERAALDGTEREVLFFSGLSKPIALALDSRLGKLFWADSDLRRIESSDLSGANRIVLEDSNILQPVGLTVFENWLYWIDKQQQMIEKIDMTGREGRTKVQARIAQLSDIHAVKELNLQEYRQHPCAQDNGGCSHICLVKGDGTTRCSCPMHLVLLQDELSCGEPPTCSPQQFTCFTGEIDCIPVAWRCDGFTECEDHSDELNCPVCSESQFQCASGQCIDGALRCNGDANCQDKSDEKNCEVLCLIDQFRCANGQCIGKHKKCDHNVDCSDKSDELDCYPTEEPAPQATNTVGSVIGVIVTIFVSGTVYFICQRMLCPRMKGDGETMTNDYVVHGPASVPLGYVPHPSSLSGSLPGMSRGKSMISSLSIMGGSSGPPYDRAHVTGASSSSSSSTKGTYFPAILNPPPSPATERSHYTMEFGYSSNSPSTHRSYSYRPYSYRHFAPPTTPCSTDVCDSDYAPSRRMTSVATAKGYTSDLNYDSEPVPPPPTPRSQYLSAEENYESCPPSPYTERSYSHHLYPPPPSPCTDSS

Variant | effect of a mutation on the interaction
A311S | disrupting interaction strength
